Source: the supplement of paper PMC9732359
± gives the uncertainty stated by the source.

Assay: protein stability index of a GFP-peptide fusion (yeast GPS) (PSI 1-4); higher = more stable; sorted into four equal gates, so the index is relative within each strain
Summary of the method: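 Peptides tiling yeast proteins in 17-residue segments were fused downstream of GFP, with Cherry expressed from the same plasmid. As a pooled library in yeast, mid-log cultures grown in leucine-free medium were sorted into four equal gates by GFP/Cherry fluorescence ratio. Gate plasmids were PCR-amplified and Illumina-sequenced, and barcodes linked reads to strains. Each peptide received a protein stability index equal to the sum of each gate's read frequency times its gate number.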

RQSKSSGKSNTSNDASN [ITC1]
protein stability index (doa10∆): 3.09 ± 0.095 | protein stability index (pdr5∆): 3.28 ± 0.08 | protein stability index (san1∆): 3.34 ± 0.065 | protein stability index (ubr1∆): 3.22 ± 0.076

RQVYKPVLDNPFTNEAH [POP3]
protein stability index (doa10∆): 2.47 ± 0.073 | protein stability index (pdr5∆): 2.67 ± 0.067 | protein stability index (san1∆): 2.46 ± 0.082 | protein stability index (ubr1∆): 2.88 ± 0.04

RRDDEVLVVRGSKKGQE [RPL26A]
protein stability index (doa10∆): 3.63 ± 0.087 | protein stability index (pdr5∆): 3.36 ± 0.089 | protein stability index (san1∆): 3.59 ± 0.079 | protein stability index (ubr1∆): 3.57 ± 0.085

RREFKQYSLERNSPFWW [PRP8]
protein stability index (doa10∆): 3.06 ± 0.12 | protein stability index (pdr5∆): 3.64 ± 0.12 | protein stability index (san1∆): 3.1 ± 0.12 | protein stability index (ubr1∆): 3.19 ± 0.14

RRFKNGFQTGSAKATSA [RPL37B]
protein stability index (doa10∆): 3.02 ± 0.066 | protein stability index (pdr5∆): 3.08 ± 0.079 | protein stability index (san1∆): 3.39 ± 0.09 | protein stability index (ubr1∆): 3.18 ± 0.06

RRKDTSMVLFFVCLSCS [RPB9]
protein stability index (doa10∆): 1.3 ± 0.052 | protein stability index (pdr5∆): 1.32 ± 0.07 | protein stability index (san1∆): 1.4 ± 0.12 | protein stability index (ubr1∆): 1.38 ± 0.039

RRREQTTYSVDDYYKEI [ISW2]
protein stability index (doa10∆): 2 ± 0.044 | protein stability index (pdr5∆): 2.55 ± 0.035 | protein stability index (san1∆): 1.91 ± 0.071 | protein stability index (ubr1∆): 2.87 ± 0.044

RRSLKKQGRIKNATEEL [CSN12]
protein stability index (doa10∆): 3.2 ± 0.098 | protein stability index (pdr5∆): 3.56 ± 0.083 | protein stability index (san1∆): 3.37 ± 0.086 | protein stability index (ubr1∆): 3.57 ± 0.066

RSATGAKRAQFRKKRKF [RPS8A]
protein stability index (doa10∆): 2.94 ± 0.1 | protein stability index (pdr5∆): 2.5 ± 0.085 | protein stability index (san1∆): 3.42 ± 0.096 | protein stability index (ubr1∆): 2.68 ± 0.073

RSKGKQNRPYNHPELQG [RPC17]
protein stability index (doa10∆): 2.08 ± 0.047 | protein stability index (pdr5∆): 2.32 ± 0.082 | protein stability index (san1∆): 2.03 ± 0.088 | protein stability index (ubr1∆): 1.94 ± 0.053

RSLEKVNNSVSKTGSVD [SSN2]
protein stability index (doa10∆): 2.38 ± 0.11 | protein stability index (pdr5∆): 3.53 ± 0.15 | protein stability index (san1∆): 3.36 ± 0.14 | protein stability index (ubr1∆): 3.37 ± 0.11

RSMVRKWQTLIEANVTV [RPS1A]
protein stability index (doa10∆): 1.65 ± 0.053 | protein stability index (pdr5∆): 1.62 ± 0.044 | protein stability index (san1∆): 1.67 ± 0.079 | protein stability index (ubr1∆): 2.24 ± 0.041

RSNKIKVVKTPGGILRA [RPL34A]
protein stability index (doa10∆): 2.64 ± 0.068 | protein stability index (pdr5∆): 2.12 ± 0.047 | protein stability index (san1∆): 2.49 ± 0.064 | protein stability index (ubr1∆): 2.2 ± 0.041

RSPVFALNMLPSEILHL [GRR1]
protein stability index (doa10∆): 2.3 ± 0.049 | protein stability index (pdr5∆): 2.27 ± 0.042 | protein stability index (san1∆): 2.4 ± 0.053 | protein stability index (ubr1∆): 2.19 ± 0.028

RSSRLHIVYSLLVNPDI [YML103C/NUP188]
protein stability index (doa10∆): 1.57 ± 0.047 | protein stability index (pdr5∆): 2.01 ± 0.05 | protein stability index (san1∆): 1.87 ± 0.075 | protein stability index (ubr1∆): 2.26 ± 0.05

RSSYMLELVNTPLTENI [YCG1]
protein stability index (doa10∆): 3.11 ± 0.096 | protein stability index (pdr5∆): 3.18 ± 0.082 | protein stability index (san1∆): 3.04 ± 0.073 | protein stability index (ubr1∆): 2.91 ± 0.084

RSTKDMIDAVFEQDSHL [SNF6]
protein stability index (doa10∆): 3.12 ± 0.068 | protein stability index (pdr5∆): 3.34 ± 0.054 | protein stability index (san1∆): 3.27 ± 0.053 | protein stability index (ubr1∆): 3.14 ± 0.058

RTDATFIRVIGSELVQK [RPT1]
protein stability index (doa10∆): 3.2 ± 0.082 | protein stability index (pdr5∆): 3.19 ± 0.057 | protein stability index (san1∆): 3.04 ± 0.072 | protein stability index (ubr1∆): 2.98 ± 0.051

RTLRRKGDINPEVSMIR [RPB2]
protein stability index (doa10∆): 3.11 ± 0.16 | protein stability index (pdr5∆): 3.39 ± 0.13 | protein stability index (san1∆): 2.79 ± 0.21 | protein stability index (ubr1∆): 3.12 ± 0.076

RTLTAVHDKILEDLVFP [RPS7A]
protein stability index (doa10∆): 3.24 ± 0.13 | protein stability index (pdr5∆): 3.15 ± 0.073 | protein stability index (san1∆): 3.28 ± 0.059 | protein stability index (ubr1∆): 3.25 ± 0.098

RTSTRGRGRGRGRGRGR [SNF2]
protein stability index (doa10∆): 3.41 ± 0.11 | protein stability index (pdr5∆): 3.17 ± 0.12 | protein stability index (san1∆): 2.86 ± 0.098 | protein stability index (ubr1∆): 3.08 ± 0.15

RTVKNILVSVLPGTEKG [CSL4]
protein stability index (doa10∆): 1.65 ± 0.27

RTYSKTYSTPKRPYESS [RPS9A]
protein stability index (doa10∆): 2.19 ± 0.055 | protein stability index (pdr5∆): 2.23 ± 0.066 | protein stability index (san1∆): 2.46 ± 0.053 | protein stability index (ubr1∆): 2.53 ± 0.043

RVERSSRSTDNFHNSKK [RRI1]
protein stability index (doa10∆): 3.31 ± 0.076 | protein stability index (pdr5∆): 3.25 ± 0.078 | protein stability index (san1∆): 2.99 ± 0.082 | protein stability index (ubr1∆): 3.08 ± 0.057

RVIDDNNRRRSRKRGGE [SIR3]
protein stability index (doa10∆): 3.57 ± 0.086 | protein stability index (pdr5∆): 3.36 ± 0.11 | protein stability index (san1∆): 3.21 ± 0.11 | protein stability index (ubr1∆): 3.46 ± 0.084

RVISEYYSRITLLRLNE [RPN5]
protein stability index (doa10∆): 2.65 ± 0.076 | protein stability index (pdr5∆): 1.67 ± 0.05 | protein stability index (san1∆): 1.68 ± 0.084 | protein stability index (ubr1∆): 1.87 ± 0.068

RVLEIQTSLVRMFEKNV [SKI6]
protein stability index (doa10∆): 3.35 ± 0.094 | protein stability index (pdr5∆): 3.07 ± 0.065 | protein stability index (san1∆): 2.51 ± 0.078 | protein stability index (ubr1∆): 3.12 ± 0.047

RVSKDKKSGSLTFNSKN [FAS2]
protein stability index (doa10∆): 3.34 ± 0.084 | protein stability index (pdr5∆): 3.26 ± 0.072 | protein stability index (san1∆): 3.23 ± 0.092 | protein stability index (ubr1∆): 3.18 ± 0.074

RVTGGMKVKADRDESSP [RPS14A]
protein stability index (doa10∆): 3.31 ± 0.077 | protein stability index (pdr5∆): 3.24 ± 0.063 | protein stability index (san1∆): 3.28 ± 0.038 | protein stability index (ubr1∆): 3.26 ± 0.05

RVTNTTSTDFPGFSKDA [RPC40]
protein stability index (pdr5∆): 3.04 ± 0.21

RYEEFADKVKLGRVRNH [RPC40]
protein stability index (doa10∆): 2.93 ± 0.064 | protein stability index (pdr5∆): 2.99 ± 0.074 | protein stability index (san1∆): 3 ± 0.068 | protein stability index (ubr1∆): 2.96 ± 0.056

RYLDNLKQEIDRGLSIK [SNU114]
protein stability index (doa10∆): 3.02 ± 0.15 | protein stability index (pdr5∆): 2.9 ± 0.17 | protein stability index (san1∆): 3.4 ± 0.18 | protein stability index (ubr1∆): 2.97 ± 0.082

RYNGGNDNIGANRSRFN [SMB1]
protein stability index (doa10∆): 3.24 ± 0.099 | protein stability index (pdr5∆): 3.39 ± 0.078 | protein stability index (san1∆): 3.14 ± 0.048 | protein stability index (ubr1∆): 3.35 ± 0.08

RYRLLSDVSDFEGWGHE [RPN1]
protein stability index (doa10∆): 2.63 ± 0.12 | protein stability index (pdr5∆): 3.35 ± 0.1 | protein stability index (san1∆): 3.07 ± 0.09 | protein stability index (ubr1∆): 2.83 ± 0.12

RYSNLVCKKADVDLHKR [RPS18A]
protein stability index (doa10∆): 3.05 ± 0.092 | protein stability index (pdr5∆): 3.38 ± 0.096 | protein stability index (san1∆): 3.58 ± 0.13 | protein stability index (ubr1∆): 2.95 ± 0.083

RYVAGVQQRYTQSGGVR [PRE6]
protein stability index (doa10∆): 2.84 ± 0.23

SAAASESDVAKQLASFG [RPL16B]
protein stability index (doa10∆): 2.76 ± 0.048 | protein stability index (pdr5∆): 2.83 ± 0.042 | protein stability index (san1∆): 2.44 ± 0.057 | protein stability index (ubr1∆): 2.42 ± 0.027

SAAGMTAAIDSVVSQIE [FAS1]
protein stability index (doa10∆): 3.49 ± 0.23 | protein stability index (pdr5∆): 3.15 ± 0.11 | protein stability index (san1∆): 3.04 ± 0.24 | protein stability index (ubr1∆): 2.81 ± 0.11

SAAMSIDKLSDVVMKAT [PRP8]
protein stability index (doa10∆): 2.46 ± 0.048 | protein stability index (pdr5∆): 2.6 ± 0.046 | protein stability index (san1∆): 2.45 ± 0.047 | protein stability index (ubr1∆): 2.37 ± 0.042

SAASIPPQQTYHFPIFN [RPN4]
protein stability index (doa10∆): 2.55 ± 0.044 | protein stability index (pdr5∆): 2.83 ± 0.045 | protein stability index (san1∆): 2.52 ± 0.035 | protein stability index (ubr1∆): 2.68 ± 0.031

SADREIQRTLMELLTQM [RPT4]
protein stability index (doa10∆): 2.93 ± 0.12 | protein stability index (pdr5∆): 3.16 ± 0.1 | protein stability index (san1∆): 3.27 ± 0.087 | protein stability index (ubr1∆): 3.02 ± 0.095

SALQQIMYQQMLKYRRL [SNF2]
protein stability index (doa10∆): 1.51 ± 0.045 | protein stability index (pdr5∆): 1.43 ± 0.036 | protein stability index (san1∆): 1.44 ± 0.091 | protein stability index (ubr1∆): 1.35 ± 0.029

SATFLRIVGSELIQKYL [RPT2]
protein stability index (doa10∆): 1.41 ± 0.066 | protein stability index (pdr5∆): 1.46 ± 0.071 | protein stability index (san1∆): 1.18 ± 0.13 | protein stability index (ubr1∆): 1.28 ± 0.051

SAVVGPNGSGKSNVIDS [SMC4]
protein stability index (doa10∆): 3.13 ± 0.049 | protein stability index (pdr5∆): 2.87 ± 0.043 | protein stability index (san1∆): 3.06 ± 0.06 | protein stability index (ubr1∆): 2.84 ± 0.033

SCAIHARIVRVRSREDR [RPS26A]
protein stability index (doa10∆): 2.41 ± 0.14 | protein stability index (pdr5∆): 1.39 ± 0.11 | protein stability index (san1∆): 1.4 ± 0.18 | protein stability index (ubr1∆): 2.62 ± 0.089

SDDDNIGQSEELSDKEI [ISW2]
protein stability index (doa10∆): 3.31 ± 0.1 | protein stability index (pdr5∆): 3.44 ± 0.09 | protein stability index (san1∆): 3.31 ± 0.08 | protein stability index (ubr1∆): 3.41 ± 0.12

SDKIPYVAPTKKEYIEL [SRB4]
protein stability index (doa10∆): 2.77 ± 0.1 | protein stability index (pdr5∆): 2.7 ± 0.1 | protein stability index (san1∆): 2.32 ± 0.11 | protein stability index (ubr1∆): 2.8 ± 0.12

SDLINKDLVKNNVSFNA [FAS1]
protein stability index (doa10∆): 2.61 ± 0.068 | protein stability index (pdr5∆): 2.58 ± 0.074 | protein stability index (san1∆): 1.62 ± 0.11 | protein stability index (ubr1∆): 2.26 ± 0.053

SDPVCLFVCNKDPDVPL [POP3]
protein stability index (doa10∆): 1.91 ± 0.053 | protein stability index (pdr5∆): 2.35 ± 0.075 | protein stability index (san1∆): 2.31 ± 0.084 | protein stability index (ubr1∆): 2.52 ± 0.081

SDRREHDEKLSDELHNQ [LIN1]
protein stability index (pdr5∆): 2.56 ± 0.18 | protein stability index (san1∆): 3.19 ± 0.16 | protein stability index (ubr1∆): 2.89 ± 0.16

SDSIEKIVEIDRHIGCA [PUP2]
protein stability index (pdr5∆): 3.11 ± 0.24 | protein stability index (san1∆): 2.74 ± 0.13 | protein stability index (ubr1∆): 2.82 ± 0.19

SDSYKVSLQNFSSSVSL [RRP40]
protein stability index (doa10∆): 2.69 ± 0.055 | protein stability index (pdr5∆): 1.8 ± 0.044 | protein stability index (san1∆): 2.02 ± 0.079 | protein stability index (ubr1∆): 1.91 ± 0.037

SEDDSESGKVFIGRLPI [RPB2]
protein stability index (doa10∆): 3.36 ± 0.08 | protein stability index (pdr5∆): 3.19 ± 0.073 | protein stability index (san1∆): 3.31 ± 0.055 | protein stability index (ubr1∆): 3.29 ± 0.043

SEGFEPTFSTHAQLLLS [PRP8]
protein stability index (doa10∆): 1.96 ± 0.038 | protein stability index (pdr5∆): 2.08 ± 0.037 | protein stability index (san1∆): 1.66 ± 0.048 | protein stability index (ubr1∆): 1.97 ± 0.034
